Test results taken from patent publication US20180371086A1.

Molecular target: human CD3, on primary human T cells (human) (UniProt P07766)
Assay: cell-based or functional assay

Sequence of human CD3, on primary human T cells (human) (P07766 23-207 limits assumed): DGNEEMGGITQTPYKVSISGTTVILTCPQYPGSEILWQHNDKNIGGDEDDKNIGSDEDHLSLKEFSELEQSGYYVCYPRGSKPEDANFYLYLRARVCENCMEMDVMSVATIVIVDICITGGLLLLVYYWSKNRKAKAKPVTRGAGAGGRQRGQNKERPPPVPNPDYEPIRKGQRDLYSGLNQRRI

PGT-121.60 (antibody) showed a CD25 EC50; CD4 T cells; donor D1597; 7552-infected CEM cells of over 100 µg/mL, a CD25 EC50; CD4 T cells; donor D1597; THRO-infected CEM cells of over 100 µg/mL and a CD25 EC50; CD4 T cells; donor D1597; uninfected CEM cells of over 100 µg/mL. It also gave a CD25 EC50; CD4 T cells; donor D2256; 7552-infected CEM cells of over 100 µg/mL, a CD25 EC50; CD4 T cells; donor D2256; THRO-infected CEM cells of over 100 µg/mL and a CD25 EC50; CD4 T cells; donor D2256; uninfected CEM cells of over 100 µg/mL. For the same substance, the CD25 EC50; CD4 T cells; donor D4246; 7552-infected CEM cells was over 100 µg/mL, the CD25 EC50; CD4 T cells; donor D4246; THRO-infected CEM cells was over 100 µg/mL and the CD25 EC50; CD4 T cells; donor D4246; uninfected CEM cells was over 100 µg/mL. For the same substance, the CD25 EC50; CD4 T cells; donor D4279; 7552-infected CEM cells was over 100 µg/mL, the CD25 EC50; CD4 T cells; donor D4279; THRO-infected CEM cells was over 100 µg/mL and the CD25 EC50; CD4 T cells; donor D4279; uninfected CEM cells was over 100 µg/mL. It also gave a CD25 EC50; CD8 T cells; donor D1597; 7552-infected CEM cells of over 100 µg/mL, a CD25 EC50; CD8 T cells; donor D1597; THRO-infected CEM cells of over 100 µg/mL and a CD25 EC50; CD8 T cells; donor D1597; uninfected CEM cells of over 100 µg/mL. It also gave a CD25 EC50; CD8 T cells; donor D2256; 7552-infected CEM cells of over 100 µg/mL, a CD25 EC50; CD8 T cells; donor D2256; THRO-infected CEM cells of over 100 µg/mL and a CD25 EC50; CD8 T cells; donor D2256; uninfected CEM cells of over 100 µg/mL. The CD25 EC50; CD8 T cells; donor D4246; 7552-infected CEM cells was over 100 µg/mL, the CD25 EC50; CD8 T cells; donor D4246; THRO-infected CEM cells was over 100 µg/mL and the CD25 EC50; CD8 T cells; donor D4246; uninfected CEM cells was over 100 µg/mL. The CD25 EC50; CD8 T cells; donor D4279; 7552-infected CEM cells was over 100 µg/mL, the CD25 EC50; CD8 T cells; donor D4279; THRO-infected CEM cells was over 100 µg/mL and the CD25 EC50; CD8 T cells; donor D4279; uninfected CEM cells was over 100 µg/mL. The CD25 Δ Emax; CD4 T cells; donor D1597; 7552-infected CEM cells was 0%, the CD25 Δ Emax; CD4 T cells; donor D1597; THRO-infected CEM cells was -2% and the CD25 Δ Emax; CD4 T cells; donor D1597; uninfected CEM cells was 3%. For the same substance, the CD25 Δ Emax; CD4 T cells; donor D2256; 7552-infected CEM cells was 2%, the CD25 Δ Emax; CD4 T cells; donor D2256; THRO-infected CEM cells was -1% and the CD25 Δ Emax; CD4 T cells; donor D2256; uninfected CEM cells was -1%. For the same substance, the CD25 Δ Emax; CD4 T cells; donor D4246; 7552-infected CEM cells was -2%, the CD25 Δ Emax; CD4 T cells; donor D4246; THRO-infected CEM cells was -2% and the CD25 Δ Emax; CD4 T cells; donor D4246; uninfected CEM cells was 0%. For the same substance, the CD25 Δ Emax; CD4 T cells; donor D4279; 7552-infected CEM cells was -1%, the CD25 Δ Emax; CD4 T cells; donor D4279; THRO-infected CEM cells was -2% and the CD25 Δ Emax; CD4 T cells; donor D4279; uninfected CEM cells was 0%. It also gave a CD25 Δ Emax; CD8 T cells; donor D1597; 7552-infected CEM cells of -1%, a CD25 Δ Emax; CD8 T cells; donor D1597; THRO-infected CEM cells of 0% and a CD25 Δ Emax; CD8 T cells; donor D1597; uninfected CEM cells of 0%. The CD25 Δ Emax; CD8 T cells; donor D2256; 7552-infected CEM cells was 0%, the CD25 Δ Emax; CD8 T cells; donor D2256; THRO-infected CEM cells was -1% and the CD25 Δ Emax; CD8 T cells; donor D2256; uninfected CEM cells was 0%. For the same substance, the CD25 Δ Emax; CD8 T cells; donor D4246; 7552-infected CEM cells was 1%, the CD25 Δ Emax; CD8 T cells; donor D4246; THRO-infected CEM cells was 0% and the CD25 Δ Emax; CD8 T cells; donor D4246; uninfected CEM cells was 0%. For the same substance, the CD25 Δ Emax; CD8 T cells; donor D4279; 7552-infected CEM cells was 0%, the CD25 Δ Emax; CD8 T cells; donor D4279; THRO-infected CEM cells was 1% and the CD25 Δ Emax; CD8 T cells; donor D4279; uninfected CEM cells was 0%. For the same substance, the CD69 EC50; CD4 T cells; donor D1597; 7552-infected CEM cells was over 100 µg/mL, the CD69 EC50; CD4 T cells; donor D1597; THRO-infected CEM cells was over 100 µg/mL and the CD69 EC50; CD4 T cells; donor D1597; uninfected CEM cells was over 100 µg/mL. For the same substance, the CD69 EC50; CD4 T cells; donor D2256; 7552-infected CEM cells was over 100 µg/mL, the CD69 EC50; CD4 T cells; donor D2256; THRO-infected CEM cells was over 100 µg/mL and the CD69 EC50; CD4 T cells; donor D2256; uninfected CEM cells was over 100 µg/mL. It also gave a CD69 EC50; CD4 T cells; donor D4246; 7552-infected CEM cells of over 100 µg/mL, a CD69 EC50; CD4 T cells; donor D4246; THRO-infected CEM cells of over 100 µg/mL and a CD69 EC50; CD4 T cells; donor D4246; uninfected CEM cells of over 100 µg/mL. The CD69 EC50; CD4 T cells; donor D4279; 7552-infected CEM cells was over 100 µg/mL, the CD69 EC50; CD4 T cells; donor D4279; THRO-infected CEM cells was over 100 µg/mL and the CD69 EC50; CD4 T cells; donor D4279; uninfected CEM cells was over 100 µg/mL. It also gave a CD69 EC50; CD8 T cells; donor D1597; 7552-infected CEM cells of over 100 µg/mL, a CD69 EC50; CD8 T cells; donor D1597; THRO-infected CEM cells of over 100 µg/mL and a CD69 EC50; CD8 T cells; donor D1597; uninfected CEM cells of over 100 µg/mL. For the same substance, the CD69 EC50; CD8 T cells; donor D2256; 7552-infected CEM cells was over 100 µg/mL, the CD69 EC50; CD8 T cells; donor D2256; THRO-infected CEM cells was over 100 µg/mL and the CD69 EC50; CD8 T cells; donor D2256; uninfected CEM cells was over 100 µg/mL. For the same substance, the CD69 EC50; CD8 T cells; donor D4246; 7552-infected CEM cells was over 100 µg/mL, the CD69 EC50; CD8 T cells; donor D4246; THRO-infected CEM cells was over 100 µg/mL and the CD69 EC50; CD8 T cells; donor D4246; uninfected CEM cells was over 100 µg/mL. The CD69 EC50; CD8 T cells; donor D4279; 7552-infected CEM cells was over 100 µg/mL, the CD69 EC50; CD8 T cells; donor D4279; THRO-infected CEM cells was over 100 µg/mL and the CD69 EC50; CD8 T cells; donor D4279; uninfected CEM cells was over 100 µg/mL. For the same substance, the CD69 Δ Emax; CD4 T cells; donor D1597; 7552-infected CEM cells was 0%, the CD69 Δ Emax; CD4 T cells; donor D1597; THRO-infected CEM cells was 0% and the CD69 Δ Emax; CD4 T cells; donor D1597; uninfected CEM cells was 1%. The CD69 Δ Emax; CD4 T cells; donor D2256; 7552-infected CEM cells was 0%, the CD69 Δ Emax; CD4 T cells; donor D2256; THRO-infected CEM cells was 0% and the CD69 Δ Emax; CD4 T cells; donor D2256; uninfected CEM cells was 0%. The CD69 Δ Emax; CD4 T cells; donor D4246; 7552-infected CEM cells was 3%, the CD69 Δ Emax; CD4 T cells; donor D4246; THRO-infected CEM cells was 1% and the CD69 Δ Emax; CD4 T cells; donor D4246; uninfected CEM cells was -1%. For the same substance, the CD69 Δ Emax; CD4 T cells; donor D4279; 7552-infected CEM cells was 3%, the CD69 Δ Emax; CD4 T cells; donor D4279; THRO-infected CEM cells was 0% and the CD69 Δ Emax; CD4 T cells; donor D4279; uninfected CEM cells was 0%. It also gave a CD69 Δ Emax; CD8 T cells; donor D1597; 7552-infected CEM cells of 0%, a CD69 Δ Emax; CD8 T cells; donor D1597; THRO-infected CEM cells of 0% and a CD69 Δ Emax; CD8 T cells; donor D1597; uninfected CEM cells of 0%. The CD69 Δ Emax; CD8 T cells; donor D2256; 7552-infected CEM cells was 0%, the CD69 Δ Emax; CD8 T cells; donor D2256; THRO-infected CEM cells was 0% and the CD69 Δ Emax; CD8 T cells; donor D2256; uninfected CEM cells was 0%. It also gave a CD69 Δ Emax; CD8 T cells; donor D4246; 7552-infected CEM cells of 0%, a CD69 Δ Emax; CD8 T cells; donor D4246; THRO-infected CEM cells of 0% and a CD69 Δ Emax; CD8 T cells; donor D4246; uninfected CEM cells of 0%. The CD69 Δ Emax; CD8 T cells; donor D4279; 7552-infected CEM cells was -4%, the CD69 Δ Emax; CD8 T cells; donor D4279; THRO-infected CEM cells was 0% and the CD69 Δ Emax; CD8 T cells; donor D4279; uninfected CEM cells was 0%.
